From patent publication US20200095569A1

Legend:
[1] = target: NLS-iLID-GFP-ferritin (Gallus gallus; human) (UniProt P02794); assay: cell-based or functional assay
[2] = target: NLS-iLID-iLID-GFP-ferritin (Gallus gallus; human) (UniProt P02794); assay: cell-based or functional assay

- mean mCherry intensity in locally activated droplets relative to nucleoplasm [1]: 100 fold
- mCherry fluorescence at core based droplets after light activation (live cell confocal imaging) [2]: 15 s
Substance: FUS(1-214)-mCherry-sspB (from UniProt P0AFZ3 6-116)
